IntAct's records for PubMed 19513107

B1: Calcium-binding protein 39 (Homo sapiens), Q9Y376 (parent)
chain: MPFPFGKSHKSPADIVKNLKESMAVLEKQDISDKKAEKATEEVSKNLVAMKEILYGTNEKEPQTEAVAQLAQELYNSGLLSTLVADLQLIDFEGKKDVAQIFNNILRRQIGTRTPTVEYICTQQNILFMLLKGYESPEIALNCGIMLRECIRHEPLAKIILWSEQFYDFFRYVEMSTFDIASDAFATFKDLLTRHKLLSAEFLEQHYDRFFSEYEKLLHSENYVTKRQSLKLLGELLLDRHNFTIMTKYISKPENLKLMMNLLRDKSRNIQFEAFHVFKVFVANPNKTQPILDILLKNQAKLIEFLSKFQNDRTEDEQFNDEKTYLVKQIRDLKRPAQQEA
partner: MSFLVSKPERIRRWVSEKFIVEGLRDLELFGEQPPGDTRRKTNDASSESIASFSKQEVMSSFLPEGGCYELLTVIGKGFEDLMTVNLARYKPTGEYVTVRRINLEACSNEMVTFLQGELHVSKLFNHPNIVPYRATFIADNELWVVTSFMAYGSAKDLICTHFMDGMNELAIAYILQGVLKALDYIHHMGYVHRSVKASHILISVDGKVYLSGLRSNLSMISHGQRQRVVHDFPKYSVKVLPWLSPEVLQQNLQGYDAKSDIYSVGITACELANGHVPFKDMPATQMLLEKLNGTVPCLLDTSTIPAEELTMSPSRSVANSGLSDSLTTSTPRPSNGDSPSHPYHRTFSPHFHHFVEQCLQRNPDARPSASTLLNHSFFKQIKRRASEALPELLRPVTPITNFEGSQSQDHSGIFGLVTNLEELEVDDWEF
B2: Calcium-binding protein 39 (Homo sapiens), Q9Y376 (parent)
chain: B1 chain
partner: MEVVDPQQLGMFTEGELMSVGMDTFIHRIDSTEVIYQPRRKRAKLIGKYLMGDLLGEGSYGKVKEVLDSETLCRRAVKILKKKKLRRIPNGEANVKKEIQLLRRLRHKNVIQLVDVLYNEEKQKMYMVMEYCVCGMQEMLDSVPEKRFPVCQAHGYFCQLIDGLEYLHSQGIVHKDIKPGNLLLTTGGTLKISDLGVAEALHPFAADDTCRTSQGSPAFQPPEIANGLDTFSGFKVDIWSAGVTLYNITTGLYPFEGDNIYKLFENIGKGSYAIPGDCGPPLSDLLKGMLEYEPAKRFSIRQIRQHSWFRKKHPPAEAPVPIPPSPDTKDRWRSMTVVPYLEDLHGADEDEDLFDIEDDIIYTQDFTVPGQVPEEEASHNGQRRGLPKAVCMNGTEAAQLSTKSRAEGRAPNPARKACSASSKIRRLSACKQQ
B3: STE20-related kinase adapter protein alpha (Homo sapiens), Q7RTN6-1 (parent)
chain: B1 partner
partner: B2 partner
B4: STE20-related kinase adapter protein alpha (Homo sapiens), Q7RTN6-1 (parent)
chain: B1 partner
partner: B1 chain

Variants of: B1
Details: with STRADA

| Variant | effect of a mutation on the interaction |
| --- | --- |
| F178A | disrupting interaction |
| F92A | disrupting interaction |
| I145A | disrupting interaction |
| K96A | disrupting interaction |
| Q228A | disrupting interaction |
| M260A | disrupting interaction |
| E93A | disrupting interaction |
| Y223A | disrupting interaction |
| S182A | disrupting interaction |
| R107A | disrupting interaction |

Variants of: B1
Details: with STRADA
Remark: another data set of the same source

| Variant | effect of a mutation on the interaction |
| --- | --- |
| R227A;M260A | disrupting interaction |

Variants of: B1
Details: with STRADA
Remark: another data set of the same source

| Variant | effect of a mutation on the interaction |
| --- | --- |
| R227A | disrupting interaction |

Variants of: B2
Details: with stk11_human STK11, Q15831

| Variant | effect of a mutation on the interaction |
| --- | --- |
| R227A;R240A | disrupting interaction |
| R227A;R240A;M260A | disrupting interaction |

Variants of: B3
Details: with stk11_human STK11, Q15831

| Variant | effect of a mutation on the interaction |
| --- | --- |
| G76D;G78D;K197E;R215E | disrupting interaction |
| G76D;G78D;R215E | decreasing interaction |
| G76D;G78D;K197E | disrupting interaction |

Variants of: B4
Details: with cab39_human CAB39, Q9Y376

| Variant | effect of a mutation on the interaction |
| --- | --- |
| E105A | disrupting interaction |
| I138Q | disrupting interaction |
| N126G | decreasing interaction |
| N109A | decreasing interaction |
| Y185F | disrupting interaction |
